Test results taken from patent US20250019439A1 (Adimab, published 2025).

Tests used:
ADI-22523 Fab = target: T1, ADI-22523 Fab; assay: BLI; tip anti-ID IgG, solution ADI-22523 Fab
T1 construct: anti-CD3 Fab by papain digestion of the IgG
Method in brief: (§1)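 Sensors carrying captured anti-ID IgG were equilibrated 30 min in assay buffer before a 60 s baseline. Equilibrium KD was taken as koff/kon from a 1:1 model.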

CTL-62223 = target: T2, CTL-62223; assay: SPR Carterra, yeast anti-ID
T2 construct: also called mosunetuzumab
T2 sequence (VH, as listed by the source, chain 1 of 2): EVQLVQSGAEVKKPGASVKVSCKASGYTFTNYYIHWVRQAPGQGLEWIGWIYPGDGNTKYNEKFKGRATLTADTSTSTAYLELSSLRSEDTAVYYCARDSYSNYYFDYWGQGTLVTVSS
T2 sequence (VL, as listed by the source, chain 2 of 2): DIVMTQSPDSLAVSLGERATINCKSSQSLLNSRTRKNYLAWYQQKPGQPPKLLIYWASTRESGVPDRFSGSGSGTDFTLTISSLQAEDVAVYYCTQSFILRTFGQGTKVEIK
Method in brief: (§2)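 Goat anti-human Fc was amine-coupled to an HC30M sensor chip, then anti-CD3 antibodies at 100 nM were flowed over discrete spots for 5 min. Anti-idiotype antibodies were run in non-regenerative kinetic cycles at 25° C in HBSTE, with 300s dissociation. Blank-subtracted sensorgrams were fitted 1:1.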

CTL-62228 = target: T3, CTL-62228; assay: SPR Carterra, yeast anti-ID
T3 construct: also called glofitamab
Method in brief: as §2

ADI-70330 = target: T4, ADI-70330; assay: SPR Carterra, yeast anti-ID
T4 construct: anti-CD3 antibody made in CHO cells, captured by anti-human Fc
Method in brief: as §2

ADI-67445 = target: T5, ADI-67445; assay: SPR Carterra, yeast anti-ID
T5 construct: anti-CD3 antibody made in CHO cells, captured by anti-human Fc
T5 sequence (VH, as listed by the source limits assumed, chain 1 of 2): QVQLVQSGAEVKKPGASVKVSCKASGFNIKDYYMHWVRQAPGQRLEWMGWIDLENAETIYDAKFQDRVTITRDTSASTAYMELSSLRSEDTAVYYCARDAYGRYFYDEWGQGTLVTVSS
T5 sequence (VL, as listed by the source limits assumed, chain 2 of 2): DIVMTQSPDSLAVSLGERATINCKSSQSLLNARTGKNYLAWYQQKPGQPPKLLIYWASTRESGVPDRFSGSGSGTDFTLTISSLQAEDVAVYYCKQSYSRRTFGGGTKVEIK
Method in brief: as §2

ADI-48587 = target: T6, ADI-48587; assay: SPR Carterra, yeast anti-ID
T6 construct: pH-dependent anti-CD3 antibody made in CHO cells
T6 sequence (VH, as listed by the source, chain 1 of 2): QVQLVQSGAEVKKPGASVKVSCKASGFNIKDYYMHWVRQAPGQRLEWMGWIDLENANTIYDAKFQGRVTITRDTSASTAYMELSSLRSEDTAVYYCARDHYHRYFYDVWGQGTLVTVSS
T6 sequence (VL, as listed by the source, chain 2 of 2): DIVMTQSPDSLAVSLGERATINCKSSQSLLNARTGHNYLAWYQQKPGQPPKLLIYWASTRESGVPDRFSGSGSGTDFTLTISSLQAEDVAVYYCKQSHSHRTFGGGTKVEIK
Method in brief: as §2

ADI-70327 = target: T7, ADI-70327; assay: SPR Carterra, yeast anti-ID
T7 construct: anti-CD3 antibody made in CHO cells, captured by anti-human Fc
T7 sequence (VH, as listed by the source limits assumed, chain 1 of 2): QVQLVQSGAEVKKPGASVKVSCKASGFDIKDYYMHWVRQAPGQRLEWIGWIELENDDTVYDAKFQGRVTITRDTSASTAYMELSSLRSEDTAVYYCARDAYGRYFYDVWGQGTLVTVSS
T7 sequence (VL, as listed by the source limits assumed, chain 2 of 2): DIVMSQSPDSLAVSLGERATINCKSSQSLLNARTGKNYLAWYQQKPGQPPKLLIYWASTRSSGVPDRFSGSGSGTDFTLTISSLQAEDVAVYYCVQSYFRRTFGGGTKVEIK
Method in brief: as §2

ADI-74967 = target: T8, ADI-74967; assay: SPR Carterra, yeast anti-ID
T8 construct: pH-dependent anti-CD3 antibody made in CHO cells
T8 sequence (VL, as listed by the source, chain 2 of 2): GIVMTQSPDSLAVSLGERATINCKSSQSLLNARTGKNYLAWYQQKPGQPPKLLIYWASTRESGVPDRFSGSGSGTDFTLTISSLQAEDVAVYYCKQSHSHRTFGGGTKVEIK
Method in brief: as §2

ADI-26909 = target: T9, ADI-26909; assay: SPR Carterra, yeast anti-ID
T9 construct: anti-CD3 antibody made in CHO cells, captured by anti-human Fc
T9 sequence (VH, as listed by the source limits assumed, chain 1 of 2): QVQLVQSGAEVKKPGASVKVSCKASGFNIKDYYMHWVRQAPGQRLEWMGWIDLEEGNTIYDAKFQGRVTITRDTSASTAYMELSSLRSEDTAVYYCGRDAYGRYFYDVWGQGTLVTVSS
Method in brief: as §2

ADI-26921 IgG = target: T10, ADI-26921 IgG; assay: SPR Carterra, yeast anti-ID
T10 construct: anti-CD3 IgG
T10 sequence (VH, as listed by the source limits assumed, chain 1 of 2): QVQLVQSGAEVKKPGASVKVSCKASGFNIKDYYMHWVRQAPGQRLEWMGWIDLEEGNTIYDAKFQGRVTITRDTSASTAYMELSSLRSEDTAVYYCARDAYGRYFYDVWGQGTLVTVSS
T10 sequence (VL, as listed by the source limits assumed, chain 2 of 2): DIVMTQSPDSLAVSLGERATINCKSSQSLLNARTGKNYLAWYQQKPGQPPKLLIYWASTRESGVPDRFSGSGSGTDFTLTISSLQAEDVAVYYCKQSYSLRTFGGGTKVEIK
Method in brief: as §2

CTL-62227 = target: T11, CTL-62227; assay: SPR Carterra, yeast anti-ID
T11 construct: also called odronextamab
T11 sequence (VH, as listed by the source, chain 1 of 2): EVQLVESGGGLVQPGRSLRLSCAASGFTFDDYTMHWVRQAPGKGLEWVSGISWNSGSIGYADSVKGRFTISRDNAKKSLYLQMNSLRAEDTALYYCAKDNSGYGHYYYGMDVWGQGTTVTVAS
T11 sequence (VL, as listed by the source, chain 2 of 2): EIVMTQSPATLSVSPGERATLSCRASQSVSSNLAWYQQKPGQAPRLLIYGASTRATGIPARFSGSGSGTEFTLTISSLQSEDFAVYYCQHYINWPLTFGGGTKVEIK
Method in brief: as §2

ADI-70326 = target: T12, ADI-70326; assay: SPR Carterra, yeast anti-ID
T12 construct: anti-CD3 antibody made in CHO cells, captured by anti-human Fc
Method in brief: as §2

CTL-62240 = target: T13, CTL-62240; assay: SPR Carterra, yeast anti-ID
T13 construct: also called ONO-4685
Method in brief: as §2

ADI-26915 = target: T14, ADI-26915; assay: SPR Carterra, yeast anti-ID
T14 construct: anti-CD3 antibody made in CHO cells, captured by anti-human Fc
T14 sequence (VH, as listed by the source, chain 1 of 2): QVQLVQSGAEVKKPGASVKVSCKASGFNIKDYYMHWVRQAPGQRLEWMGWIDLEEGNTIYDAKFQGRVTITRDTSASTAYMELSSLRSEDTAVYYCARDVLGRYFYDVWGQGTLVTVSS
Method in brief: as §2

ADI-22523 IgG = target: T15, ADI-22523 IgG; assay: BLI; tip anti-ID IgG, solution ADI-22523 IgG
T15 construct: anti-CD3 IgG
Method in brief: as §1

ADI-26920 IgG = target: T16, ADI-26920 IgG; assay: SPR Carterra avidity, yeast anti-ID, *koff limit
T16 construct: anti-CD3 IgG
T16 sequence (VH, as listed by the source limits assumed, chain 1 of 2): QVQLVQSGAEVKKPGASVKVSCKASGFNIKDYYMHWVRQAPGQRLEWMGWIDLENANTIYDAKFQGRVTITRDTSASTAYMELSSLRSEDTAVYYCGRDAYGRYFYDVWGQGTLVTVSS
Method in brief: as §2

ADI-26906 IgG = target: T17, ADI-26906 IgG; assay: SPR Carterra avidity, yeast anti-ID, *koff limit
T17 construct: anti-CD3 IgG
Method in brief: as §2

ADI-26913 IgG = target: T18, ADI-26913 IgG; assay: SPR Carterra avidity, yeast anti-ID, *koff limit
T18 construct: anti-CD3 IgG
T18 sequence (VH, as listed by the source limits assumed, chain 1 of 2): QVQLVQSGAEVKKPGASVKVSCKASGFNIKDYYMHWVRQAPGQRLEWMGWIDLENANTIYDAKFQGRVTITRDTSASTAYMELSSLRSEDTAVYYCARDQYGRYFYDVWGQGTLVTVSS
Method in brief: as §2

ADI-76357 = target: T19, ADI-76357; assay: SPR Carterra avidity, yeast anti-ID, *koff limit
T19 construct: anti-CD3 antibody made in CHO cells, captured by anti-human Fc
Method in brief: as §2

ADI-26943 = target: T20, ADI-26943; assay: SPR Carterra avidity, yeast anti-ID, *koff limit
T20 construct: anti-CD3 antibody made in CHO cells, captured by anti-human Fc
Method in brief: as §2

ADI-76359 = target: T21, ADI-76359; assay: SPR Carterra avidity, yeast anti-ID
T21 construct: anti-CD3 antibody made in CHO cells, captured by anti-human Fc
Method in brief: as §2

ADI-67450 = target: T22, ADI-67450; assay: SPR Carterra avidity, yeast anti-ID
T22 construct: anti-CD3 antibody made in CHO cells, captured by anti-human Fc
T22 sequence (VH, as listed by the source limits assumed, chain 1 of 2): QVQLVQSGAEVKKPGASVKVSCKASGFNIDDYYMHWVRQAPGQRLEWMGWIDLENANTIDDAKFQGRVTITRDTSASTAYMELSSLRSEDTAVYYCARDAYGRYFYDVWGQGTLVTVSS
Method in brief: as §2

ADI-48576 = target: T23, ADI-48576; assay: SPR Carterra avidity, yeast anti-ID
T23 construct: pH-dependent anti-CD3 antibody made in CHO cells
T23 sequence (VH, as listed by the source, chain 1 of 2): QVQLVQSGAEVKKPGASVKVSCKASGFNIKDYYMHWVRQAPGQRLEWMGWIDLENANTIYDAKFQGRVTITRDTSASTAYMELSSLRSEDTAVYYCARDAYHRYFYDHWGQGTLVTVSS
T23 sequence (VL, as listed by the source, chain 2 of 2): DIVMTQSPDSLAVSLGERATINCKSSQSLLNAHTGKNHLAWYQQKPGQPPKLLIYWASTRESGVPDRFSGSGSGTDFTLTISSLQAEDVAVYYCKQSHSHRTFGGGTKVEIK
Method in brief: as §2

ADI-74965 = target: T24, ADI-74965; assay: SPR Carterra avidity, yeast anti-ID
T24 construct: pH-dependent anti-CD3 antibody made in CHO cells
Method in brief: as §2

ADI-26912 = target: T25, ADI-26912; assay: SPR Carterra avidity, yeast anti-ID
T25 construct: anti-CD3 antibody made in CHO cells, captured by anti-human Fc
T25 sequence (VH, as listed by the source, chain 1 of 2): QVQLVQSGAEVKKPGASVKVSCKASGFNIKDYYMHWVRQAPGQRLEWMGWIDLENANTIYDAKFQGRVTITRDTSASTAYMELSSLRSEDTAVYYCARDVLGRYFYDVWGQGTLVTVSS
Method in brief: as §2

ADI-74966 = target: T26, ADI-74966; assay: SPR Carterra avidity, yeast anti-ID
T26 construct: pH-dependent anti-CD3 antibody made in CHO cells
T26 sequence (VL, as listed by the source, chain 2 of 2): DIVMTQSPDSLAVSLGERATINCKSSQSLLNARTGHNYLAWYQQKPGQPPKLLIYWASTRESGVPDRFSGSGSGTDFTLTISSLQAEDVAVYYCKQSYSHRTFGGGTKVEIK
Method in brief: as §2

ADI-50024 = target: T27, ADI-50024; assay: SPR Carterra avidity, yeast anti-ID
T27 construct: anti-CD3 antibody made in CHO cells, captured by anti-human Fc
Method in brief: as §2

ADI-76361 = target: T28, ADI-76361; assay: SPR Carterra avidity, yeast anti-ID
T28 construct: anti-CD3 antibody made in CHO cells, captured by anti-human Fc
Method in brief: as §2

ADI-76358 = target: T29, ADI-76358; assay: SPR Carterra avidity, yeast anti-ID
T29 construct: anti-CD3 antibody made in CHO cells, captured by anti-human Fc
Method in brief: as §2

ADI-48650 = target: T30, ADI-48650; assay: SPR Carterra avidity, yeast anti-ID
T30 construct: pH-dependent anti-CD3 antibody made in CHO cells
T30 sequence (VH, as listed by the source, chain 1 of 2): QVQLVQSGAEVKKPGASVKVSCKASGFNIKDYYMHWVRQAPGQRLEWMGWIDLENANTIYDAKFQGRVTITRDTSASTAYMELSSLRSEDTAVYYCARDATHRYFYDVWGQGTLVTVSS
T30 sequence (VL, as listed by the source, chain 2 of 2): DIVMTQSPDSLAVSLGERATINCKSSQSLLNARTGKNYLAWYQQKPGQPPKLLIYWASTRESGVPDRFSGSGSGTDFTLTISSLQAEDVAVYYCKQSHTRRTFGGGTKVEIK
Method in brief: as §2

ADI-48592 = target: T31, ADI-48592; assay: SPR Carterra avidity, yeast anti-ID
T31 construct: pH-dependent anti-CD3 antibody made in CHO cells
Method in brief: as §2

ADI-76360 = target: T32, ADI-76360; assay: SPR Carterra avidity, yeast anti-ID
T32 construct: anti-CD3 antibody made in CHO cells, captured by anti-human Fc
Method in brief: as §2

ADI-76362 = target: T33, ADI-76362; assay: SPR Carterra avidity, yeast anti-ID
T33 construct: anti-CD3 antibody made in CHO cells, captured by anti-human Fc
Method in brief: as §2

ADI-26924 = target: T34, ADI-26924; assay: SPR Carterra avidity, yeast anti-ID
T34 construct: anti-CD3 antibody made in CHO cells, captured by anti-human Fc
T34 sequence (VH, as listed by the source, chain 1 of 2): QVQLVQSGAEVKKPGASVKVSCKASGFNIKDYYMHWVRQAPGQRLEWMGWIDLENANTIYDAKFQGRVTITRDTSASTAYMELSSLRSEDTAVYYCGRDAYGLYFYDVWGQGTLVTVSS
Method in brief: as §2

ADI-74968 = target: T35, ADI-74968; assay: SPR Carterra avidity, yeast anti-ID
T35 construct: pH-dependent anti-CD3 antibody made in CHO cells
Method in brief: as §2

ADI-67447 = target: T36, ADI-67447; assay: SPR Carterra avidity, yeast anti-ID
T36 construct: anti-CD3 antibody made in CHO cells, captured by anti-human Fc
Method in brief: as §2

ADI-26916 IgG = target: T37, ADI-26916 IgG; assay: SPR Carterra avidity, yeast anti-ID
T37 construct: anti-CD3 IgG
T37 sequence (VH, as listed by the source, chain 1 of 2): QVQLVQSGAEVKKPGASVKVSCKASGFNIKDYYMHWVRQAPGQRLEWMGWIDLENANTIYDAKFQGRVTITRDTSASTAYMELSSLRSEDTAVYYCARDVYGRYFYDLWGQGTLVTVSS
Method in brief: as §2

ADI-26919 = target: T38, ADI-26919; assay: SPR Carterra avidity, yeast anti-ID
T38 construct: anti-CD3 antibody made in CHO cells, captured by anti-human Fc
Method in brief: as §2

B1: ADI-34144 (antibody, V domains shown)
VH: EVQLLESGGGLVQPGGSLRLSCAASGFTFSSYAMSWVRQAPGKGLEWVSTISGSGGSTYYADSVKGRFTISRDNSKNTLYLQMNSLRAEDTAVYYCARLGGRRGSGSSYYYYYGMDVWGQGTTVTVSS
VL: not shown
notes: anti-ID IgG
- Kd (ADI-22523 Fab): 6.17 nM
- binding result (CTL-62223): no binding (tested: up to 200 nM)
- binding result (CTL-62228): no binding (tested: up to 200 nM)
- binding result (ADI-70330): no binding (tested: up to 200 nM)
- binding result (ADI-67445): no binding (tested: up to 200 nM)
- binding result (ADI-48587): no binding (tested: up to 200 nM)
- binding result (ADI-70327): no binding (tested: up to 200 nM)
- binding result (ADI-74967): no binding (tested: up to 200 nM)
- binding result (ADI-26909): no binding (tested: up to 200 nM)
- binding result (ADI-26921 IgG): no binding (tested: up to 200 nM)
- binding result (CTL-62227): no binding (tested: up to 200 nM)
- binding result (ADI-70326): no binding (tested: up to 200 nM)
- binding result (CTL-62240): no binding (tested: up to 200 nM)
- binding result (ADI-26915): no binding (tested: up to 200 nM)
- Kd (ADI-22523 IgG): 2.6 nM
- Kd (ADI-26920 IgG): 7.5 nM
- Kd (ADI-26906 IgG): 12 nM
- Kd (ADI-26913 IgG): 8.6 nM
- Kd (ADI-76357): 6.3 nM
- Kd (ADI-26943): 5.1 nM
- Kd (ADI-76359): 17 nM
- binding result (ADI-67450): binds
- binding result (ADI-48576): binds
- binding result (ADI-74965): binds
- binding result (ADI-26912): binds
- Kd (ADI-74966): 59 nM
- binding result (ADI-50024): binds
- binding result (ADI-76361): binds
- binding result (ADI-76358): binds
- binding result (ADI-48650): binds
- binding result (ADI-48592): binds
- binding result (ADI-76360): binds
- binding result (ADI-76362): binds
- Kd (ADI-26924): 4.9 nM
- Kd (ADI-74968): 72 nM
- Kd (ADI-67447): 22 nM
- Kd (ADI-26916 IgG): 16 nM
- Kd (ADI-26919): 32 nM
